# Measured values from patent US20100120024.
# pKd: −log10 of the molar value. Where two headings read alike, the source gives them in different places.
# Columns and labels:
# [1] = target: T7 RNA polymerase Y639L/H784A/K378R (Bacteriophage T7) (UniProt P00573); settings: MNA yield, 8 mM MgCl2, 2.5 mM MnCl2
# [2] = target: von Willebrand factor A1 domain (Homo sapiens) (UniProt P04275); experiment: filter; settings: 2'-OMe A,G,U; 2'-deoxy C; pool; DPBS with Ca2+ and Mg2+
# [3] = target: von Willebrand factor (vWF) (Homo sapiens) (UniProt P04275); experiment: filter; settings: 2'-OMe A,G,U; 2'-deoxy C; pool; DPBS with Ca2+ and Mg2+
# IgE (Homo sapiens) = experiment: filter; settings: 2'-OMe A,G,U; 2'-deoxy C; pool; DPBS with Ca2+ and Mg2+
# [4] = target: T7 RNA polymerase Y639L/H784A/K378R (Bacteriophage T7) (UniProt P00573); settings: 2.1 ug/ml enzyme; 2'-OMe NTPs, 8 mM MgCl2, 2.5 mM MnCl2, 37 C
# [5] = target: T7 RNA polymerase P266L/Y639L/H784A/K378R (Bacteriophage T7) (UniProt P00573); settings: 11 ug/ml enzyme (65 at 2.6, 13 at 0.66, 8.3 at 0.16 ug/ml); 8 mM MgCl2, 2.5 mM MnCl2
sequence,measurement,setting,value
GGGAGAATTCCGACCAGAAGCTTNNNNNNNNNNNNNNNNNNNNNNNNNNNNNNNNNNNNNNNNCATATGTGCGTCTACATGGATCCTCA (double strand),activity,[1]; dCmD yield 365 pmol,473 pmol
"GGGAGAATTCCGACCACAAGNNNNNNNNNNNNNNNNNNNNNNNNNNNNNNNNNNNNNNNNCATATGTGCGTCTACATGGATCCTCA [ARC4218 dCmD round 6 pool, vWF selection]",pKd,[2],8.40
same,pKd,[3],8.70
"GGGAGAATTCCGACCACAAGNNNNNNNNNNNNNNNNNNNNNNNNNNNNNNNNNNNNNNNNCATATGTGCGTCTACATGGATCCTCA [ARC4218 dCmD round 6 pool, IgE selection]",pKd,IgE (Homo sapiens),8.10
GGGAGAGACAAGCTTGGGTCNNNNNNNNNNNNNNNNNNNNNNNNNNNNNNNNNNNNNNNNAGAAGAGAAAGAGAAGTTAATTAAGGATCCTCAG (double strand),activity,[1]; dCmD yield 327 pmol,404 pmol
TAATACGACTCACTATAGGGGAGTACAATAACGTTCTCGNNNNNNNNNNNNNNNNNNNNNNNNNNNNNNGGATCGTTACGACTAGCATCGATG (double strand) [ARC2118 transcription template],activity (normalized MNA transcript yield),[4],100
same,activity (normalized MNA transcript yield),[5],130
